Laboratory results: patent publication US20220056104A1 (Janssen / Centocor, published 2022)
Where two headings read alike, the source gives them in different places. One block for each binder: values may come before it.

Columns and labels:
[1] = target: T1, Recombinant DR3-Fc (R&D Systems, cat. #943-D3) (UniProt Q93038 25-199, limits assumed); experiment: ELISA, TL1A construct immobilized, DR3 titrated
T1 construct: dimeric MW~92 kDa; also called DR3 receptor; Fc-DR3; not shown: Fc part of the bought fusion
T1 sequence (looked up): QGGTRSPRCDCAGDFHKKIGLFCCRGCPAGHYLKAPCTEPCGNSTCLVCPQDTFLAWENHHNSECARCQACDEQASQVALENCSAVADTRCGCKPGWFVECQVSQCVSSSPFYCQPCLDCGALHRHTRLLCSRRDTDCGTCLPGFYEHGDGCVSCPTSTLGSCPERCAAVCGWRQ

[2] = target: T1, Recombinant DR3-Fc (R&D Systems, cat. …); experiment: ELISA, DR3-Fc immobilized
Protocol: (§1) All ELISA-based measurements were collected in triplicate, and error values report the standard error between measurements. Recombinant DR3-Fc (R&D Systems, cat. #943-D3), dimeric MW˜92 kDa, was non-specifically immobilized onto plates (Nunc maxisorp, cat. #436110) in 100 μL DR3-Fc, diluted to 10 μg/mL onto a 96-well White Maxisorp plate (Nunc, cat #436110) (O/N, 4° C.). Plates were block for 1 hour at room temperature with 250 μl/well of casein buffer and blocking buffer was removed. 50 μL of TL1A variants were diluted in StartingBlock PBS (Thermo Fisher Scientific), at 25 μg/mL, diluting 3× over each well, according to the plate map description for 20160623) per well on a 96-well White Maxisorp plate (Nunc, cat #: 436110) (overnight at 4° C.).
Plates were washed three times with TBST. 100 μl/well polyclonal rabbit anti-human TL1A-biotin antibody (diluted 1:1000 in Starting Block PBS) was added and plates were incubated for 1 hour at room temperature with shaking at 150 rpm. TL1A-biotin antibody was removed and 100 μl/well streptavidin-HRP conjugate (diluted 1:10,000 in Starting Block PBS) was added to plates. […] 100 μl/well POD Chemiluminescence substrate (Roche, cat #: 11582950001) was added immediately prior to reading plate luminescence using a Molecular Devices M5 plate reader with a delay setting of 100 ms.

DcR3 [3] = target: T2, DcR3 (UniProt O95407 30-300, limits assumed); experiment: ELISA, DcR3
T2 construct: the construct is not described; also called decoy receptor DcR3; TNFRSF6B
T2 sequence (looked up): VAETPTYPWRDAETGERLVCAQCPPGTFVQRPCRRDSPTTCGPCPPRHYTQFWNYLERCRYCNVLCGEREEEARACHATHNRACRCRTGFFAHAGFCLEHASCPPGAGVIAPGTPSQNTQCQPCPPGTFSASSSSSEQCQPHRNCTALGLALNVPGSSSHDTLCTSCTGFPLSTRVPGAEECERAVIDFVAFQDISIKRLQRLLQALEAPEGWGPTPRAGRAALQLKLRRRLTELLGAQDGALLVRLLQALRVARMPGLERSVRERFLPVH

DcR3 [4] = target: T2, DcR3; experiment: ELISA, DcR3; remark: listed apart in the source
[5] = target: T1, Recombinant DR3-Fc (R&D Systems, cat. …); experiment: ELISA, DR3-Fc immobilized; remark: listed apart in the source
How it was run: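 DR3-Fc (10 μg/mL) was coated overnight at 4 °C, blocked with casein, then incubated overnight at 4 °C with TL1A variants from 25 μg/mL in 3-fold dilutions. Bound TL1A was detected with biotinylated rabbit anti-human TL1A and streptavidin-HRP, read by chemiluminescence; triplicates, errors as standard error.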

[6] = target: T1, Recombinant DR3-Fc (R&D Systems, cat. …); experiment: ELISA, DR3-Fc immobilized; remark: listed apart in the source
Protocol: as §1
Plates were washed three times with TBST. 100 μl/well polyclonal rabbit anti-human TL1A-biotin antibody (diluted 1:1000 in Starting Block PBS) was added and plates were incubated for 1 hour at room temperature with shaking at 150 rpm. TL1A-biotin antibody was removed and 100 μl/well streptavidin-HRP conjugate (diluted 1:10,000 in Starting Block PBS) was added to plates. Plates were incubated for 1 hour at room temperature with shaking at 150 rpm. Plates were washed three times with TBST. 100 μl/well POD Chemiluminescence substrate (Roche, cat #: 11582950001) was added immediately prior to reading plate luminescence using a Molecular Devices M5 plate reader with a delay setting of 100 ms.
These combination mutants were tested for binding to DR3 and DcR3 (FIGS. 5E and 5F, respectively).

[7] = target: T1, Recombinant DR3-Fc (R&D Systems, cat. …); experiment: ELISA

EC50 [1]: 2.5 nM
EC50 [2]: 6.8 nM
EC50 (DcR3 [3]): 4.6 nM
Rel EC50 (DcR3 [3]): 1 ratio
EC50 (DcR3 [4]): 4.6 nM
Rel EC50 (DcR3 [4]): 1 ratio (head: nM)
EC50 [5]: 26.2 nM
Rel EC50 [5]: 1 ratio (head: nM)
EC50 [6]: 26.2 nM
Rel EC50 [6]: 1 ratio
B1: TL1W2 (His-TEV-hTL1A 72-251) (ligand)
chain: HHHHHHENLYFQGLKGQEFAPSHQQVYAPLRADGDKPRAHLTVVRQTPTQHFKNQFPALHWEHELGLAFTKNRMNYTNKFLLIPESGDYFIYSQVTFRGMTSECSEIRQAGRPNKPDSITVVITKVTDSYPEPTQLLMGTKSVCEVGSNWFQPIYLGAMFSLQEGDKLMVNVSDISLVDYTKEDKTFFGAFLL
notes: Non-covalent trimer; entry holds the His-TEV tag; also called His-TL1A; His-TL1A (TL1W2)

fold weaker EC50 than other molecules [7]: ~3 fold
EC50 [2]: 27.3 nM
B2: TL1W19 (His-TEV-TL1A-TL1A-TL1A) (ligand)
chain: HHHHHHENLYFQGAPLRADGDKPRAHLTVVRQTPTQHFKNQFPALHWEHELGLAFTKNRMNYTNKFLLIPESGDYFIYSQVTFRGMTSECSEIRQAGRPNKPDSITVVITKVTDSYPEPTQLLMGTKSVCEVGSNWFQPIYLGAMFSLQEGDKLMVNVSDISLVDYTKEDKTFFGAFLLAPLRADGDKPRAHLTVVRQTPTQHFKNQFPALHWEHELGLAFTKNRMNYTNKFLLIPESGDYFIYSQVTFRGMTSECSEIRQAGRPNKPDSITVVITKVTDSYPEPTQLLMGTKSVCEVGSNWFQPIYLGAMFSLQEGDKLMVNVSDISLVDYTKEDKTFFGAFLLAPLRADGDKPRAHLTVVRQTPTQHFKNQFPALHWEHELGLAFTKNRMNYTNKFLLIPESGDYFIYSQVTFRGMTSECSEIRQAGRPNKPDSITVVITKVTDSYPEPTQLLMGTKSVCEVGSNWFQPIYLGAMFSLQEGDKLMVNVSDISLVDYTKEDKTFFGAFLL
notes: Single-chain trimer, three TL1A copies in one chain; also called His-scTL1A; His-scTL1A (TL1W19)
